From US8735553 (BEIGENE SWITZERLAND, dated 2014)
Like-named read-outs stand apart in the source and are kept apart here.

Experiments:
[1] = biological target: T1, human PD-1 expressed on cells (human, UniProt Q15116 25-288); assay: FACS on PD-1-expressing cells
T1 construct: whole, on cells; also called HuT78/PD-1; NK92MI/PD-1

[2] = biological target: T1, human PD-1 expressed on cells; assay: FACS on PD-1-expressing cells; remark: listed apart in the source
[3] = biological target: T1, human PD-1 expressed on cells; assay: cell-based or functional assay
[4] = biological target: P3Z chimeric PD-1 receptor (human); assay: cell-based or functional assay
Sequence of P3Z chimeric PD-1 receptor (human) (chain, as listed by the source mutant limits assumed): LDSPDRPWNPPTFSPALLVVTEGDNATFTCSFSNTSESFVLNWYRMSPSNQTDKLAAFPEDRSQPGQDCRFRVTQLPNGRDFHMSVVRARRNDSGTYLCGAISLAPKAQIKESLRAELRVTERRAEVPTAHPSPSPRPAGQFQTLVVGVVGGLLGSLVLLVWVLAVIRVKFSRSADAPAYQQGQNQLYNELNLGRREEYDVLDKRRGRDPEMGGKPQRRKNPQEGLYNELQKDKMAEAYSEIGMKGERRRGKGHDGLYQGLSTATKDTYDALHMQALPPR

[5] = biological target: T1, human PD-1 expressed on cells; assay: cell-based or functional assay; remark: listed apart in the source
[6] = biological target: P3Z chimeric PD-1 receptor (human); assay: cell-based or functional assay; remark: listed apart in the source

T1 sequence (Q15116 25-288): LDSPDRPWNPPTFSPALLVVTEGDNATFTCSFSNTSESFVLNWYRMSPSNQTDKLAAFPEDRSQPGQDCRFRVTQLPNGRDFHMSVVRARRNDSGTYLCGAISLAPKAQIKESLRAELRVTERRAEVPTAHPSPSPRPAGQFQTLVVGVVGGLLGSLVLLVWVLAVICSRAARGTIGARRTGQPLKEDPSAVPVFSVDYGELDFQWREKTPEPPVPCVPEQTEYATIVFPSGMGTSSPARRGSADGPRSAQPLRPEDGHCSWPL

Binder | EC50 [1] | EC50 [2] | Top MFI [2] | Assay-1 IL-2 release, EC50 (HuT78/PD-1 + HEK293/OS8/PD-L1) [3] | Assay-1 IL-2 release, Top line (HuT78/PD-1 + HEK293/OS8/PD-L1) [3] | Assay-2 IL-2 release, IC50 (HuT78/P3Z + HEK293/PD-L1) [4] | Assay-2 IL-2 release, Max inhibition (HuT78/P3Z + HEK293/PD-L1) [4] | IL-2 release in HuT78/PD-1, EC50 [5] | IL-2 release in HuT78/PD-1, Top line [5] | IL-2 release in HuT78/P3Z, IC50 [6] | IL-2 release in HuT78/P3Z, Max inhibition [6]
ch326 (antibody, human IgG2, V domains shown, not shown: a dimerising Fc or GST, domain: Ig kappa C-region; Murine VH and Vκ of mu326 on human IgG2 / kappa) VH: QIQLVQSGPELKKPGETVKISCKASGYTFTNYGMNWVKQAPGKGLKWMGWINNNNGEPTYAEEFKGRFAFSLETSASTAYLQINNLKNEDTATYFCARDVMDYWGQGTSVTVSS VL: DIVLTQSPASLAVSLGQRATISCRASESVDNYGYSFMHWYQQKPGQPPQLLIYRASNLESGIPARFSGSGSRTGFTLTINPVEADDVATYYCQQSKEYPTFGGGTKLEVKR | 0.118 µg/mL | 0.072 µg/mL | 163 MFI | 0.074 µg/mL | 1060 pg/mL | 0.12 µg/mL | 81% | 0.135 µg/mL | 993 pg/mL | 0.074 µg/mL | 93%
hu326-2 F95Y (antibody, V domains shown, mAb; constant regions not restated (hu326-1 is IgG2 / kappa); Forward mutation to human) VH: QVQLVQSGSELKKPGASVKVSCKASGYTFTNYGMNWVRQAPGQGLEWMGWINNNNGEPTYAQGFRGRFVFSLDTSASTAYLQISSLKTEDTAVYYCARDVMDYWGQGTTVTVSS VL: DIVLTQSPASLAVSPGQRATITCRASESVDNYGYSFMHWYQQKPGQPPKLLIYRASNLESGVPARFSGSGSRTDFTLTINPVEANDTANYYCQQSKEYPTFGGGTKVEIK | 0.097 µg/mL | – | – | – | – | – | – | 0.135 µg/mL | 1030 pg/mL | 0.166 µg/mL | 95.6%
hu326-2 G63D (antibody, V domains shown, mAb; constant regions not restated (hu326-1 is IgG2 / kappa); Back mutation to murine) VH: QVQLVQSGSELKKPGASVKVSCKASGYTFTNYGMNWVRQAPGQGLEWMGWINNNNGEPTYAQDFRGRFVFSLDTSASTAYLQISSLKTEDTAVYFCARDVMDYWGQGTTVTVSS VL: DIVLTQSPASLAVSPGQRATITCRASESVDNYGYSFMHWYQQKPGQPPKLLIYRASNLESGVPARFSGSGSRTDFTLTINPVEANDTANYYCQQSKEYPTFGGGTKVEIK | 0.139 µg/mL | – | – | – | – | – | – | 0.12 µg/mL | 1070 pg/mL | 0.064 µg/mL | 96.4%
hu326-2 S9P (antibody, V domains shown, mAb; constant regions not restated (hu326-1 is IgG2 / kappa); Back mutation to murine) VH: QVQLVQSGPELKKPGASVKVSCKASGYTFTNYGMNWVRQAPGQGLEWMGWINNNNGEPTYAQGFRGRFVFSLDTSASTAYLQISSLKTEDTAVYFCARDVMDYWGQGTTVTVSS VL: DIVLTQSPASLAVSPGQRATITCRASESVDNYGYSFMHWYQQKPGQPPKLLIYRASNLESGVPARFSGSGSRTDFTLTINPVEANDTANYYCQQSKEYPTFGGGTKVEIK | 0.145 µg/mL | – | – | – | – | – | – | 0.136 µg/mL | 1020 pg/mL | 0.075 µg/mL | 96%

The remaining lines, values ahead:

EC50 [1] | EC50 [2] | Top MFI [2] | Assay-1 IL-2 release, EC50 (HuT78/PD-1 + HEK293/OS8/PD-L1) [3] | Assay-1 IL-2 release, Top line (HuT78/PD-1 + HEK293/OS8/PD-L1) [3] | Assay-2 IL-2 release, IC50 (HuT78/P3Z + HEK293/PD-L1) [4] | Assay-2 IL-2 release, Max inhibition (HuT78/P3Z + HEK293/PD-L1) [4] | IL-2 release in HuT78/PD-1, EC50 [5] | IL-2 release in HuT78/PD-1, Top line [5] | IL-2 release in HuT78/P3Z, IC50 [6] | IL-2 release in HuT78/P3Z, Max inhibition [6] | Binder
0.131 µg/mL | – | – | – | – | – | – | 0.126 µg/mL | 1020 pg/mL | 0.06 µg/mL | 96.5% | hu326-2 S84N (antibody, V domains shown, mAb; constant regions not restated (hu326-1 is IgG2 / kappa); Back mutation to murine) VH: QVQLVQSGSELKKPGASVKVSCKASGYTFTNYGMNWVRQAPGQGLEWMGWINNNNGEPTYAQGFRGRFVFSLDTSASTAYLQINSLKTEDTAVYFCARDVMDYWGQGTTVTVSS VL: DIVLTQSPASLAVSPGQRATITCRASESVDNYGYSFMHWYQQKPGQPPKLLIYRASNLESGVPARFSGSGSRTDFTLTINPVEANDTANYYCQQSKEYPTFGGGTKVEIK
0.11 µg/mL | – | – | – | – | – | – | 0.104 µg/mL | 932 pg/mL | 0.093 µg/mL | 95.6% | hu326-2 S85N (antibody, V domains shown, mAb; constant regions not restated (hu326-1 is IgG2 / kappa); Back mutation to murine) VH: QVQLVQSGSELKKPGASVKVSCKASGYTFTNYGMNWVRQAPGQGLEWMGWINNNNGEPTYAQGFRGRFVFSLDTSASTAYLQISNLKTEDTAVYFCARDVMDYWGQGTTVTVSS VL: DIVLTQSPASLAVSPGQRATITCRASESVDNYGYSFMHWYQQKPGQPPKLLIYRASNLESGVPARFSGSGSRTDFTLTINPVEANDTANYYCQQSKEYPTFGGGTKVEIK
